Molecular target: KIX domain (residues 568-672) of mouse CBP (mouse) (UniProt P45481)
Test: NMR titration

Chain of KIX domain (residues 568-672) of mouse CBP (mouse) (P45481 568-672): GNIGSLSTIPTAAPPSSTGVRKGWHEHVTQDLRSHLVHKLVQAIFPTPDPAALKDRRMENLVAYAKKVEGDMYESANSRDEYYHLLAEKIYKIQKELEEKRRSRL

- Kd: 214 µM
Substance: p53(14-28) (from UniProt P04637 14-28) (peptide)
